In patent publication US20060194259A1, “Method for isolating an allosteric effector of a receptor” (priority 2002, published 2006):

Experiments:
[1] = target: T1, receptor EGFP-NK2R (UniProt P16610); assay: Dissociation of NKA4-10 TR7 from EGFP-NK2R by fluorescence energy transfer; type: binding; parameters: % al (max): maximum value observed for the increase in amplitude of the rapid dissociation rate; ns = n; other: 20 nM of NK; % al (at 10 μM); other: compou; fused on or other part: EGFP fused to the receptor as FRET donor; settings: 10° C.; without 805
T1 sequence (P16610 1-390): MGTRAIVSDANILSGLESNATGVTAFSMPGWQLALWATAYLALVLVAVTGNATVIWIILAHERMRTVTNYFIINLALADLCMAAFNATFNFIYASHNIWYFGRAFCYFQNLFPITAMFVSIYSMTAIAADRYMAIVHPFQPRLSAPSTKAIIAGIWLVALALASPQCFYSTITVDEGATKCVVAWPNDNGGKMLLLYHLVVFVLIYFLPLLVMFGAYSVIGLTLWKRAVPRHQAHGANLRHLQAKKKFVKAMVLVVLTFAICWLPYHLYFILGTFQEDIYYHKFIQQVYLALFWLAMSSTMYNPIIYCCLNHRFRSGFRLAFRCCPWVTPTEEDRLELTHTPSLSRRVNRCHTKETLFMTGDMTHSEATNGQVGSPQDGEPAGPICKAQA
Procedure: (§1) The x-axis represents time in seconds and the y-axis represents fluorescence.
(§2) In the presence of 10 μM of 805, an acceleration of the dissociation is observed characterized by a modification of the amplitudes of the rapid (88%) and slow (12%) dissociation stages.

[2] = target: T2, receptor EGFP-NK2R (Homo sapiens, UniProt P21452); assay: Calcium response caused by NKA 4-10 TR7 in HEK 293 cells expressing EGFP-NK2R (indo-1); type: cell-based; settings: read-out: 50%-effective dose of NKA 4-10 TR7 for the calcium response; without 805
T2 sequence (P21452 1-398): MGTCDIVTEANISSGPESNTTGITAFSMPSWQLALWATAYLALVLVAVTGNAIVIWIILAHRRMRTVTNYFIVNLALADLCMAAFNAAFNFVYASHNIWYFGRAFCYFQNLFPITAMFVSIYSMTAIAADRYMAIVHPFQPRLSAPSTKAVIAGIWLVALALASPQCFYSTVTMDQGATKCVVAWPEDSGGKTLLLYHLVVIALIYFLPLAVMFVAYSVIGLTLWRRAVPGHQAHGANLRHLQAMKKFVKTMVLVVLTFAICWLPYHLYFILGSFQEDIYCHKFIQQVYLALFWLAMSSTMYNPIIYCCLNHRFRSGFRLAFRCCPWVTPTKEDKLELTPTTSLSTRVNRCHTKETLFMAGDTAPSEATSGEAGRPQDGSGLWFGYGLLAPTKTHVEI
Procedure: The cells are put into suspension at a rate of 500,000 cells/ml in Hepes buffer and arranged in a spectrofluorimeter cuvette. The excitation wavelength is fixed at 355 nm and the emission is recorded at […].

[3] = target: T2, receptor EGFP-NK2R; assay: Dissociation of NKA4-10 TR7 from EGFP-NK2R by fluorescence energy transfer; type: binding; settings: 10° C.; without 805
Procedure: as §1, §2

NKA4-10 TR7: truncated neurokinin NKA4-10 marked in position 7 by Texas Red
amplitude of the slow dissociation of NKA4-10 TR7 [1]: 42% | EC50 [2]: ~20 nM | amplitude of the rapid dissociation of NKA4-10 TR7 [3]: 58%
